Measurements taken from the RNAGym collection of RNA variant scans (doi:10.7554/elife.90254).

B1: LINE1-mini (parent)
chain: GGCAGAGCUCAACACAGCGUGGCAAAGUGGCUGUGGCUAGACUGCC

Variants of: B1
Assay: self-cleavage, relative activity (ratio to wild type); higher = more cleavage; in vitro, sequencing; the parent is a self-cleaving ribozyme

In order of falling self-cleavage:
1. A4G G30A  1.37
2. A4G G22A  1.25
3. A4G G22U  1.14
4. A4G A24G  1.09
5. A4G G21A  1.05
6. A4G A24U  1.02
7. A4G G30C  0.91
8. A4G G22C  0.91
9. A4U A25U  0.84
10. A4G A25C  0.78
11. A4C G36A  0.73
12. A4G G21U  0.68
13. A4G A25U  0.62
14. A4G C45U  0.6
15. A4G C18U  0.55
16. A4G U20C  0.48
17. A4U G21A  0.48
18. A4G G30U  0.45
19. A4U G5C  0.45
20. A4G C45A  0.45
21. G5A C8U  0.44
22. A4G C46A  0.4
23. A4U A24C  0.4
24. A4G C46U  0.39
25. A4G C45G  0.37
26. A4G A25G  0.36
27. A4U G21U  0.35
28. A4G C8A  0.32
29. A4G C18A  0.31
30. A4G C31G  0.31
31. A4U G7A  0.31
32. G5A C8A  0.27
33. A4U A39C  0.27
34. A4G A6U  0.27
35. A4U A24G  0.26
36. A4G A24C  0.25
37. A4U G44U  0.25
38. G5A A39C  0.24
39. A4C U9G  0.24
40. A4G C8U  0.24
41. A4G C46G  0.24
42. A4U G21C  0.24
43. A4G G21C  0.24
44. A4G U20G  0.23
45. A4G U9G  0.23
46. G5A A24G  0.23
47. G5A C8G  0.22
48. A4G C42U  0.22
49. A4U A24U  0.21
50. A4G U9A  0.21
51. A4U A26U  0.2
52. A4U G7U  0.2
53. A4G G35U  0.19
54. A4U C15U  0.19
55. A4U C10U  0.19
56. A4G U20A  0.19
57. A4U A16C  0.19
58. A4C U9A  0.18
59. A4C G35U  0.18
60. A4C U32A  0.18
61. A4U G7C  0.18
62. A4C G35A  0.17
63. A4U G44A  0.17
64. A4U U38C  0.17
65. A4U G40A  0.17
66. A4U C45U  0.16
67. A4C G40A  0.16
68. A4U A6G  0.16
69. A4C G44A  0.16
70. A4G C18G  0.16
71. A4G A16G  0.16
72. A4G A16U  0.16
73. A4U G17U  0.16
74. A4U C45G  0.15
75. A4G G35A  0.15
76. A4U A14G  0.15
77. A4U A16U  0.15
78. A4C U34C  0.15
79. A4U G35A  0.14
80. A4U C13U  0.14
81. A4U A26G  0.14
82. A4U A26C  0.14
83. A4G C31U  0.14
84. A4U U32C  0.14
85. A4U U32G  0.14
86. A4G A6C  0.14
87. A4U G40U  0.14
88. A4C G40U  0.13
89. A4U G35U  0.13
90. A4U A6U  0.13
91. A4C G44U  0.13
92. A4C G40C  0.12
93. A4U A14C  0.12
94. A4G U34C  0.12
95. A4U C13A  0.12
96. A4U A16G  0.12
97. A4U A12U  0.12
98. A4U G33U  0.12
99. A4U G5U  0.12
100. A4C G44C  0.12
101. A4U G44C  0.12
102. A4G C31A  0.12
103. A4U U38A  0.12
104. A4G A16C  0.12
105. A4C U38C  0.12
106. A4C U38A  0.12
107. A4U A39U  0.11
108. A4U G35C  0.11
109. A4G C8G  0.11
110. A4G A12U  0.11
111. A4C G35C  0.11
112. G5A A24U  0.11
113. A4G A6G  0.11
114. A4U C42A  0.11
115. G5A A39U  0.1
116. A4U C45A  0.1
117. A4G G35C  0.1
118. A4U A14U  0.1
119. A4U C13G  0.1
120. A4U G5A  0.1
121. A4C U32G  0.1
122. A4C U32C  0.1
123. A4C U20G  0.1
124. A4C G36U  0.1
125. A4G C42A  0.09
126. A4U G33C  0.09
127. G5A C10U  0.09
128. A4C G36C  0.09
129. G5A A39G  0.08
130. A4U C15A  0.08
131. G5A A41U  0.08
132. A4U A25G  0.08
133. A4U A25C  0.08
134. A4G U34G  0.08
135. A4C U20A  0.08
136. G5A A24C  0.08
137. A4U U34A  0.08
138. A4U U34C  0.08
139. A4U C42G  0.08
140. A4U A39G  0.07
141. A4G U34A  0.07
142. A4U G33A  0.07
143. A4U G40C  0.07
144. A4U C15G  0.06
145. G5A A41C  0.06
146. A4U C10G  0.06
147. A4U A6C  0.06
148. A4U U32A  0.06
149. A4U G17A  0.06
150. A4U G17C  0.06
151. A4U U34G  0.06
152. A4G A12G  0.05
153. A4U A12G  0.05
154. A4C U20C  0.05
155. G5A A41G  0.04
156. A4U C10A  0.04
157. A4C U9C  0.04
158. G5A C10A  0.04
159. A4C U38G  0.04
160. A4G A12C  0.03
161. A4U A12C  0.03
162. G5A C10G  0.03
163. A4U U38G  0.03
164. A4G C42G  0.02
165. A4C U34G  0.02
166. A4G U9C  0.02
167. A4C U34A  0
